Like-named read-outs stand apart in the source and are kept apart here.
What was measured:
brain cells = conditions: cortex
Method: For the particulate fluorescence analysis, images were converted to binary images, and then 5 ROIs 20*20 μm^2 were drawn per image. The area of each particle on the ROI was measured using the Image) particle analysis tool, where each particle was measured separately. Sizes were then summarized, sorted, and further analyzed using Minitab18 software (Minitab, Inc, State College, Pa., USA). Particulate areas observed between different conditions were compared via a one-way ANOVA combined with post-hoc Tukey tests to test differences between each experimental group.
A more reliable method to separate the particulate from the cellular fluorescence was reasoned to be by adjusting the levels of the image and converting it to a binary image, allowing the detection of only particulates eliminating interference of the diffused background. FIGS. 29A-29D illustrate intracellular fluorescence of mini nanodrugs.
Each ROI was converted to binary (black and white) image and the area and number of particles were quantified. 3 images per brain area were tested for 3 mice per group.
The particle content (example of ROI in FIG. 29A) then was measured. The average size of the particulate fluorescence is a proxy to estimate the intracellular load of fluorescent nanoconjugates following their injections. An example of such an analysis is shown in FIG. 29A: the yellow squares indicate regions of interest that were used to quantify particulate fluorescence. FIGS. 29B-29C summarize the average size of the intracellular fluorescence particles in the cortex ([…]), midbrain (FIG. 29C), and the hippocampus (FIG. 29C).

[1] = system: blood-brain barrier (BBB); experiment: BBB penetration: nanoconjugate fluorescence in brain parenchyma of healthy mice by optical imaging
Method: Healthy Mice: Eight to nine-week-old BALB/C and BLACK-6 mice were obtained from Charles River Laboratories (Wilmington, Mass., USA). […] Three to four mice of each sex were used for each experiment.
Nanoconjugates were dissolved freshly in PBS (pH 7.4) prior to each experiment and injected intravenously (i.v.) into the lateral tail vein. Mice were anesthetized with isoflurane beforehand, and their tails were briefly warmed to facilitate injections. […] The drug injection volume was kept constant at 150 μL. After each injection, mice were promptly returned to their cages. Eight to nine-week-old B116 mice were obtained from Charles River Laboratories (Wilmington, Mass., USA). […] Three to four mice of each sex were used for each experiment. Nanoconjugates were dissolved freshly in PBS (pH 7.4) prior to each experiment and injected intravenously (i.v.) into the lateral tail vein. […] All mice were euthanized 2 h post drug injection. Mice were anesthetized with isoflurane beforehand and their tails were briefly warmed to facilitate injections. All conjugates were administered as a single dose, as indicated for each experiment (4× or 8×). […]
In this analysis, 20×10 μm^2 or 10×10 μm^2 sized regions of interest (ROI) were randomly overlaid on images showing the vasculature, explicitly avoiding blood vessels. For FIG. 30A, the ROI was drawn around all Neun stained nucleuses detected. Intensity measurements and positions were then obtained for each ROI after it was separately overlaid on the image showing nanoconjugate fluorescence.
Fluorescence measurements were thus based on the anatomy of the cerebral vasculature rather than nanoconjugate labeling of whole sections or extracts of brain parenchyma and were therefore unbiased and intentionally avoiding the nanoconjugate load in the cerebral vasculature.
All nanoconjugate fluorescence measurements in brain parenchyma (e.g., FIGS. 14B-14C (1-3); 16B (1-3); 19B-19E; 20C-20D; and FIG. 22B) are presented as relative fluorescence intensities. […] Relative fluorescence measurements thus represent total fluorescence minus representative autofluorescence. […]

Brain (other hemisphere) = conditions: 2 h, PBS background subtracted

## PMLA/LLL/AP2/rhodamine [P/LLL/AP2]
Brain cells
  average area per particle: 0.42±0.72 μm^2
[1]; 0.068 μmol/kg i.v.
  time at which nanoconjugate fluorescence could not be distinguished from background of brain parenchyma: 240 min
  time of maximal conjugate fluorescence in cortex parenchyma: 30 min
[1]; dose 8×
  fluorescence intensity in normal brain: 30 units
Brain (other hemisphere); dose 1X
  Brain (other hemisphere) fluorescence: 2.1
Brain (other hemisphere); dose 4X
  Brain (other hemisphere) fluorescence: 9.4

Reference: patent publication US20200206304A1, “METHODS AND COMPOSITIONS FOR EFFICIENT DELIVERY THROUGH MULTIPLE BIO BARRIERS” (Cedars-Sinai Medical Center, priority 2017, published 2020)
